The values that follow come from PMC10978878.

The target in experiment [1] is BA.2.12.1 spike, recombinant trimer that retains the native sequence (SARS-CoV-2) (UniProt P0DTC2). The experiment can be described thus: cryo-EM structure.
In experiment [2] the target is BA.4 spike, recombinant trimeric S-twin-Strep, prefusion stabilized (SARS-CoV-2) (UniProt P0DTC2). The experiment can be described thus: cryo-EM structure.

Take “BA.2.12.1 spike, recombinant trimer that retains the native sequence (from UniProt P0DTC2) (natural protein)”: the stoichiometry N (chains per oligomer) in experiment [1] was determined as 3.
In the case of “BA.4 spike, recombinant trimeric S-twin-Strep, prefusion stabilized (from UniProt P0DTC2 28-1147) (natural protein)”, the stoichiometry N (chains per oligomer) in experiment [2] was found to be 3.
